{"source": "patent US20200384080A1", "about": "(published 2020)", "binders": {"B1": {"name": "ActRIIB-Fc A64 20-134 (Fc fusion)", "chain": "GRGEAETRECIYYNANWELERTNQSGLERCEGEQDKRLHCYASWANSSGTIELVKKGCWLDDFNCYDRQECVATEENPQVYFCCCEGNFCNERFTHLPEAGGPEVTYEPPPTAPTGGGTHTCPPCPAPELLGGPSVFLFPPKPKDTLMISRTPEVTCVVVDVSHEDPEVKFNWYVDGVEVHNAKTKPREEQYNSTYRVVSVLTVLHQDWLNGKEYKCKVSNKALPVPIEKTISKAKGQPREPQVYTLPPSREEMTKNQVSLTCLVKGFYPSDIAVEWESNGQPENNYKTTPPVLDSDGSFFLYSKLTVDKSRWQQGNVFSCSVMHEALHNHYTQKSLSLSPGK"}, "B2": {"name": "ActRIIB(20-134)-hFc (Fc fusion)", "chain": "B1 chain with A45R"}, "B3": {"name": "BMP6 (ligand, UniProt P22004 375-513, looked up)", "chain": "SASSRRRQQSRNRSTQSQDVARVSSASDYNSSELKTACRKHELYVSFQDLGWQDWIIAPKGYAANYCDGECSFPLNAHMNATNHAIVQTLVHLMNPEYVPKPCCAPTKLNAISVLYFDDNSNVILKKYRNMVVRACGCH"}, "B4": {"name": "ALK4-Fc homodimer (Fc fusion)", "chain": "SGPRGVQALLCACTSCLQANYTCETDGACMVSIFNLDGMEHHVRTCIPKVELVPAGKPFYCLSSEDLRNTHCCYTDYCNRIDLRVPSGHLKEPEHPSMWGPVE", "notes": "not shown: linker and Fc of the homodimer not specified"}}, "key": {"GDF11 [1]": {"molecular_target": "T1, GDF11 (UniProt O95390 299-407)", "T1 sequence (looked up)": "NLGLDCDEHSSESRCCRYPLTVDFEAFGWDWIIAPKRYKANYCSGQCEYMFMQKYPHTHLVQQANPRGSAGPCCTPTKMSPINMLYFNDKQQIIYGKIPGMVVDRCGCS", "assay": "cell-based or functional assay"}, "activin A": {"molecular_target": "T2, activin A (UniProt P08476 311-426)", "T2 sequence (looked up)": "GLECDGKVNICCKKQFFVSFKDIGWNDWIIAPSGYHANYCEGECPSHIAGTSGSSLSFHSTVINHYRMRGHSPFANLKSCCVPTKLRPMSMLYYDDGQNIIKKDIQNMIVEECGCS", "assay": "cell-based or functional assay"}, "[2]": {"molecular_target": "T3, ALK4-Fc:ActRIIB-Fc heterodimer (human, UniProt P36896 24-126; Q13705 20-134)", "T3 construct": "also called ALK4-Fc:ActRIIB-Fc heterodimeric complex; ALK4:ActRIIB heterodimer; not shown: Linkers (TGGG on ALK4, GGG on ActRIIB) and the engineered Fc pair; They differ only in Fc substitutions", "T3 sequence 1": "B4 chain", "T3 sequence 2": "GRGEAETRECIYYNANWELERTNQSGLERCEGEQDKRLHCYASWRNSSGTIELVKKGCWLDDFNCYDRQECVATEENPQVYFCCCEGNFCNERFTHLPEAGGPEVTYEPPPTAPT", "assay": "Biacore, receptor captured by anti-Fc", "experimental": "(§1) A Biacore™-based binding assay was used to compare ligand binding selectivity of the ALK4-Fc:ActRIIB-Fc heterodimeric complex described above with that of ActRIIB-Fc and ALK4-Fc homodimer complexes. The ALK4-Fc:ActRIIB-Fc heterodimer, ActRIIB-Fc homodimer, and ALK4-Fc homodimer were independently captured onto the system using an anti-Fc antibody. Ligands were injected and allowed to flow over the captured receptor protein. Results are summarized in the table below, in which ligand off-rates (kd) most indicative of effective ligand traps are denoted in bold font."}, "GDF11 [3]": {"molecular_target": "T1, GDF11", "assay": "Biacore, receptor captured by anti-Fc; footnote: very low signal", "experimental": "as §1"}, "GDF11 [4]": {"molecular_target": "T1, GDF11", "assay": "Biacore, receptor captured by anti-Fc", "experimental": "as §1"}}, "note": "Numbering of substitutions follows the chain as printed."}
{"binder": "B1", "values": [{"measurement": "KI, cell-based assay", "setting": "GDF11 [1]", "value": "~1000", "unit": "nM"}, {"measurement": "KI, cell-based assay", "setting": "activin A", "value": "~1000", "unit": "nM"}]}
{"binder": "B2", "values": [{"measurement": "KI, cell-based assay", "setting": "GDF11 [1]", "value": "~10", "unit": "nM"}, {"measurement": "KI, cell-based assay", "setting": "activin A", "value": "~10", "unit": "nM"}]}
{"binder": "B3", "values": [{"measurement": "Kd", "setting": "[2]", "value": 2.7, "unit": "nM"}, {"measurement": "koff", "setting": "[2]", "value": 0.0055, "unit": "s⁻¹"}, {"measurement": "kon", "setting": "[2]", "value": "2e+06", "unit": "M⁻¹ s⁻¹"}]}
{"binder": "B4", "values": [{"measurement": "Kd", "setting": "GDF11 [3]", "value": 0.27, "unit": "nM"}, {"measurement": "kon", "setting": "GDF11 [4]", "value": "4.8e+06", "unit": "M⁻¹ s⁻¹"}]}
